According to patent publication US20140286975A1:

Key:
CD40 = CD40 (UniProt P25942); test: cell-based or functional assay
CD40L = CD40L (UniProt P29965); test: cell-based or functional assay
Sequence of UniProt P29965 (P29965 whole entry): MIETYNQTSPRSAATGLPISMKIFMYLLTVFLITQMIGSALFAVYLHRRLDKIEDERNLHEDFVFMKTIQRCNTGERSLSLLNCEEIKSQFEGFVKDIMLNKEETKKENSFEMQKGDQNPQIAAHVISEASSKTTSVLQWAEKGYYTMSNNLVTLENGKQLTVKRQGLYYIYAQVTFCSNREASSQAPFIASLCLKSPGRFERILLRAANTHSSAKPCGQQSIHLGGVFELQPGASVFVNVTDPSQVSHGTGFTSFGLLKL

Sequence of UniProt P25942 (P25942 21-277 limits assumed): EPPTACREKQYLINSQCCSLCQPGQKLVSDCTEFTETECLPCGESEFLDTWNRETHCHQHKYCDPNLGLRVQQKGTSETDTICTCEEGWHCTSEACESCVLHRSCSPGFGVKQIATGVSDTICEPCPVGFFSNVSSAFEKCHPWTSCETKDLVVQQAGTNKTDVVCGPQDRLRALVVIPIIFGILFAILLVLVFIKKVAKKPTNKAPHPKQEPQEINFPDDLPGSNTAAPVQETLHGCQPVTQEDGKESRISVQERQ

antiCD40 clone 82111 (R&D Systems) (antibody)
IFN-γ ELISpots upon restimulation of T-cells primed by doubly-loaded DCs (CD40): 8 % increase
IFN-γ ELISpots upon restimulation of T-cells primed by lysate-loaded DCs (CD40): 51 % increase
IFN-γ ELISpots upon restimulation of T-cells primed by mRNA-loaded DCs (CD40): 86 % increase
IFN-γ ELISpots upon restimulation, self-antigen controls (fold increase) (CD40): 6

anti-CD40L clone 40804 (R&D Systems) (antibody)
IFN-γ ELISpots upon recall, T-lymphocytes primed and restimulated by doubly-loaded dendritic cells (CD40L): 68 % decrease
